Results: patent publication US20260056186A1 (JIANGSU HENGRUI PHARMACEUTICALS, published 2026)
Read-outs that look alike come from different tables or passages of the source.

Legend:
[1] = target: recombinant human BAFF (R&D cat: 7537-BF-025/CF) (human, UniProt Q9Y275 134-285); assay: cell-based or functional assay
[2] = target: T1, BAFF (PeproTech, Cat: 310-13) (UniProt Q9Y275 134-285); assay: ELISA, BAFF coated at 1 ug/mL, anti-human Fc-HRP, OD450
Description: (§1) The capabilities of B613301, B613302, and B613303, which are fusion proteins of anifrolumab and TACI-BCMA, to bind to BAFF and APRIL were assessed by ELISA as follows: [0548] BAFF (PeproTech, Cat: 310-13) or ARPIL (Acro Biosystems, Cat: APL-H52D1) was diluted to 1 μg/mL with PBS, and a 96-well plate (Costar, Cat: 3590) was coated with the dilution overnight at 4° C. The plate was washed with PBST and blocked with Blocking Buffer (PBST containing 1% BSA) at 37° C. for 1 h. The plate was tapped. The test antibodies were diluted with Blocking Buffer. Incubation was performed at 37° C. for 1.5 h. The plate was washed with PBST. An HRP-mouse anti-human Fc antibody (GenScript, Cat: A01854-200) was diluted with Blocking Buffer. Incubation was performed at 37° C. for 40 min. The plate was washed with PBST. 100 μL of TMB substrate solution (Biopanda, Cat: TMB-S-003) was added, and color development was performed at 37° C. for 3 min. 100 μL of ELISA stop solution (Solarbio, Cat: C1058) was added. OD450 was measured.

[3] = target: T2, APRIL (Acro Biosystems, Cat: APL-H52D1) (UniProt O75888 115-250, limits assumed); assay: ELISA, APRIL coated at 1 ug/mL, anti-human Fc-HRP, OD450
T2 construct: also called ARPIL
T2 sequence (looked up): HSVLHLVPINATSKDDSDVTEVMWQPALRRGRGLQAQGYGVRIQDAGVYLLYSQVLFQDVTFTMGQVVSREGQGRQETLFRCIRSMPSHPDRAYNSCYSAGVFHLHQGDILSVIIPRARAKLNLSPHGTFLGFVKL
Description: as §1, with “TACI-BCMA” for “B613301, B613302, and B613303, which are”, “(B575701, B575702, B575703,” for “of anifrolumab”, “B575704)” for “TACI-BCMA,”, “follows:” for “follows: [0548]”
The capabilities of the 4 fusion proteins to bind to APRIL were all stronger than that of telitacicept, and their EC₅₀ values decreased to ¼ to ⅓ of that of telitacicept.

[4] = target: T2, APRIL (Acro Biosystems, Cat: APL-H52D1); assay: as above; remark: listed apart in the source
[5] = target: T1, BAFF (PeproTech, Cat: 310-13); assay: ELISA, plate coated with BAFF 1 ug/mL, HRP anti-human Fc, OD450
Description: as §1, with “BAFF” for “The capabilities of B613301, B613302, and B613303, which are fusion proteins of anifrolumab and TACI-BCMA, to bind to BAFF and APRIL were assessed by ELISA as follows: [0548] BAFF”, “310-13)” for “310-13) or ARPIL (Acro Biosystems, Cat: APL-H52D1)”, “plate” for “plate (Costar, Cat: 3590)”

[6] = target: T1, BAFF (PeproTech, Cat: 310-13); assay: as above; remark: listed apart in the source
Description: as §1, with “BAFF” for “The capabilities of B613301, B613302, and B613303, which are fusion proteins of anifrolumab and TACI-BCMA, to bind to BAFF and APRIL were assessed by ELISA as follows: [0548] BAFF”, “310-13)” for “310-13) or ARPIL (Acro Biosystems, Cat: APL-H52D1)”, “plate” for “plate (Costar, Cat: 3590)”

T1 sequence (Q9Y275 134-285 limits assumed): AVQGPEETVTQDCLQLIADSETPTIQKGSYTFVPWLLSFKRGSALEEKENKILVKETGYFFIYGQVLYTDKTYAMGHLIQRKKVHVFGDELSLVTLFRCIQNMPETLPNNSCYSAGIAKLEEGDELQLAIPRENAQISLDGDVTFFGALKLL
recombinant human BAFF (R&D cat: 7537-BF-025/CF), sequence (Q9Y275 134-285 limits assumed): as above

B1: Telitacicept (RCT-18) (Fc fusion)
chain: SRVDQEERFPQGLWTGVAMRSCPEEQYWDPLLGTCMSCKTICNHQSQRTCAAFCRSLSCRKEQGKFYDHLLRDCISCASICGQHPKQCAYFCENKLRSPVNLPPELDKTHTCPPCPAPEAEGAPSVFLFPPKPKDTLMISRTPEVTCVVVDVSHEDPEVKFNWYVDGVEVHNAKTKPREEQYNSTYRVVSVLTVLHQDWLNGKEYKCKVSNKALPSSIEKTISKAKGQPREPQVYTLPPSRDELTKNQVSLTCLVKGFYPSDIAVEWESNGQPENNYKTTPPVLDSDGSFFLYSKLTVDKSRWQQGNVFSCSVMHEALHNHYTQKSLSLSPGK
notes: Positive control TACI-Fc; also called RC18
For B1, the “Flow cytometry proliferating B cell proportion (%), mean value, BAFF-induced, drug at 10 nM (IgG1: 40.15)” value [1] was 36%, the “Flow cytometry proliferating B cell proportion (%), mean value, BAFF-induced, drug at 100 nM (IgG1: 40.60)” value [1] was 30.7% and the “Flow cytometry proliferating B cell proportion (%), mean value, BAFF-induced, drug at 1000 nM (IgG1: 33.97)” value [1] was 24.3%. The EC50 [2] was 0.801 nM, the EC50 [3] was 0.711 nM and the Emax [3] was 2.62. For the same binder, the EC50 [4] was 0.536 nM, the Emax [4] was 2.98 and the “EC50 (read off the curve)” value [5] was about 0.4 nM. The “EC50 (read off the curve)” value [6] was about 0.2 nM.
